Test results from PMC6682550.

Molecular target: 6xHis-tag M1 protein from Influenza A/FPV/Rostock/34, labelled with Alexa Fluor 488 (M1-Alexa488) (Influenza A virus A/FPV/Rostock/34) (UniProt P03487)
Assay: […], pH 7.4, NaCl ~45 mM; […]

Substance “6xHis-tag M1 protein from Influenza A/FPV/Rostock/34, labelled with Alexa Fluor 488 (M1-Alexa488) (from UniProt P03487 1-252) (natural protein)” has a stoichiometry N of 15.
